Experimental data: patent US20140010832A1

What was measured:
Experiment in all cases: ELISA; cytokine coated, ECM protein 0.02 to 320 nM, KD by non-linear fit
[1] = target: Vitronectin
[2] = target: Fibrinogen
[3] = target: Tenascin C
[4] = target: Fibronectin
[5] = target: Osteopontin

Sequence of Fibronectin (P02751 32-2477): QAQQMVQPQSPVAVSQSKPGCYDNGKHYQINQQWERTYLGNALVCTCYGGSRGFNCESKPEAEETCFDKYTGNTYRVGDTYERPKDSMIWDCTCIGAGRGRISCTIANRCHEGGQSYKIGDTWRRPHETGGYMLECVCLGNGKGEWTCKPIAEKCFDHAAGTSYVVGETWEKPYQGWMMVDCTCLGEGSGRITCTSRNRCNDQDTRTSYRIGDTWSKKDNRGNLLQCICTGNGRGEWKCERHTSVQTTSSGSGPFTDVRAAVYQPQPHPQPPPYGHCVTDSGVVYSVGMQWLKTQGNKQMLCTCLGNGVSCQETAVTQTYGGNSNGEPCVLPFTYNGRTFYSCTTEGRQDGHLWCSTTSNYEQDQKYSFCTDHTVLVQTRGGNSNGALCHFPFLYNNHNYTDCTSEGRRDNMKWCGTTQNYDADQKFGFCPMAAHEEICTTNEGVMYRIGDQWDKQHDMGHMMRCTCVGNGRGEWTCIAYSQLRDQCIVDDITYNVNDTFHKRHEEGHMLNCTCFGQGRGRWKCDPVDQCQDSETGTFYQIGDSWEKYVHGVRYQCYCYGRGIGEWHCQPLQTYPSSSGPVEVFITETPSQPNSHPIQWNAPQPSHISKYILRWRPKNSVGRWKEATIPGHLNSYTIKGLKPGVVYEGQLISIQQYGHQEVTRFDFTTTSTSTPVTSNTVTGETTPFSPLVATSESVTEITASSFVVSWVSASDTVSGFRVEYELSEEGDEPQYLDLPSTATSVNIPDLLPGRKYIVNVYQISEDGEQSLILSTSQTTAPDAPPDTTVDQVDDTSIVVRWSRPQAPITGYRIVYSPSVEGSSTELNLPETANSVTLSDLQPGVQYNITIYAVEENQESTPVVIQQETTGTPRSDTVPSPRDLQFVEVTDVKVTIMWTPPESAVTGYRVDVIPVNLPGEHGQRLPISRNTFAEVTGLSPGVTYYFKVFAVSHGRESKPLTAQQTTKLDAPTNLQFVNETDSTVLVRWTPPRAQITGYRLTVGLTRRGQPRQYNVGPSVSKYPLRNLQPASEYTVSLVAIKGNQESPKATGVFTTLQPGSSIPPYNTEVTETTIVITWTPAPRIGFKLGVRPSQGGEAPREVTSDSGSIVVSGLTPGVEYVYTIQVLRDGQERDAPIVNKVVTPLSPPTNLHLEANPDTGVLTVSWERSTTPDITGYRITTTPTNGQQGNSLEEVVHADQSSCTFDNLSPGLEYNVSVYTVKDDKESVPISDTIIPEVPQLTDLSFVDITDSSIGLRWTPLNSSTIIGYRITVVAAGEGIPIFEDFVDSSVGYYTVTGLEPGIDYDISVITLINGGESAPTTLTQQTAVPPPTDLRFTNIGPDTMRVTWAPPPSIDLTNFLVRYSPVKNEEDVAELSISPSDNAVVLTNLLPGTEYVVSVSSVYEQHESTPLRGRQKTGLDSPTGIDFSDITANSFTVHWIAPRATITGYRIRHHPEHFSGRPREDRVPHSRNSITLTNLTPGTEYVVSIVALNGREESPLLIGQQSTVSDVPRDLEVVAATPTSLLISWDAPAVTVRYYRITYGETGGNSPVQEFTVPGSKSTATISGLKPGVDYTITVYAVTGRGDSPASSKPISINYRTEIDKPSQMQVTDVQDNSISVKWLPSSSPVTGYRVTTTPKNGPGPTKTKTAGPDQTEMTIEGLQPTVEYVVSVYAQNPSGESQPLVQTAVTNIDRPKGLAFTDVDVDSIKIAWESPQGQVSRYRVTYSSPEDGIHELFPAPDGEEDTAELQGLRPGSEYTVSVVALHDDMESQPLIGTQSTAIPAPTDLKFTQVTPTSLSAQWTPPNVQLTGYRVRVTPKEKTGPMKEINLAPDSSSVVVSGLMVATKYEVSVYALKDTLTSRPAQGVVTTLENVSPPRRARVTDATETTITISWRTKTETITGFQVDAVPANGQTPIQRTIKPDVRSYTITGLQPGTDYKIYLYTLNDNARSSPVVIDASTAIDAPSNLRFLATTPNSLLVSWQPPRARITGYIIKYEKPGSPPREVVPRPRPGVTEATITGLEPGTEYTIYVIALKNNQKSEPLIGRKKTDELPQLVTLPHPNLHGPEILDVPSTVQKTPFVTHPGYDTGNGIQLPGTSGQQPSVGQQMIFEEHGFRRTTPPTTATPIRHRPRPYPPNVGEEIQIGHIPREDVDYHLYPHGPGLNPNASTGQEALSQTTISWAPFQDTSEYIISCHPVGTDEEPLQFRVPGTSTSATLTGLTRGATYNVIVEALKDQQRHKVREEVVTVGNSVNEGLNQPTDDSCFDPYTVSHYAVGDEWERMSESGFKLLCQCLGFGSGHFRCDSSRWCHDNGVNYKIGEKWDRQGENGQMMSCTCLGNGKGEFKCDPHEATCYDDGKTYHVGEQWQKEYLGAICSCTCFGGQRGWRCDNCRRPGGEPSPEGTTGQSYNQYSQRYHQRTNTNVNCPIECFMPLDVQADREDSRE
Sequence of Vitronectin (P04004 20-478): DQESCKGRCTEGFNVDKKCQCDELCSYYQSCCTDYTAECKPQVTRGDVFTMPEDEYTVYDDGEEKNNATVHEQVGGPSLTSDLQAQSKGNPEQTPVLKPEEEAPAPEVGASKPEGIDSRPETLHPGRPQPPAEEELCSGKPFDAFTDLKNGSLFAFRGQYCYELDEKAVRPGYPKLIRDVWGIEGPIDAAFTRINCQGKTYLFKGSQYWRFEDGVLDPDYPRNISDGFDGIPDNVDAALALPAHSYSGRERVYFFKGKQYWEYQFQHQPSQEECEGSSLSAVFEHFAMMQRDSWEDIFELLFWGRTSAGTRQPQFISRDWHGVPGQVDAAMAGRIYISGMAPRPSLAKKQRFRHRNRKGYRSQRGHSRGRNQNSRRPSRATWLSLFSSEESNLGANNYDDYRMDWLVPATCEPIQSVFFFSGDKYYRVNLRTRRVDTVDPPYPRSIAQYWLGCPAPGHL
Sequence of Tenascin C (P24821 23-2201): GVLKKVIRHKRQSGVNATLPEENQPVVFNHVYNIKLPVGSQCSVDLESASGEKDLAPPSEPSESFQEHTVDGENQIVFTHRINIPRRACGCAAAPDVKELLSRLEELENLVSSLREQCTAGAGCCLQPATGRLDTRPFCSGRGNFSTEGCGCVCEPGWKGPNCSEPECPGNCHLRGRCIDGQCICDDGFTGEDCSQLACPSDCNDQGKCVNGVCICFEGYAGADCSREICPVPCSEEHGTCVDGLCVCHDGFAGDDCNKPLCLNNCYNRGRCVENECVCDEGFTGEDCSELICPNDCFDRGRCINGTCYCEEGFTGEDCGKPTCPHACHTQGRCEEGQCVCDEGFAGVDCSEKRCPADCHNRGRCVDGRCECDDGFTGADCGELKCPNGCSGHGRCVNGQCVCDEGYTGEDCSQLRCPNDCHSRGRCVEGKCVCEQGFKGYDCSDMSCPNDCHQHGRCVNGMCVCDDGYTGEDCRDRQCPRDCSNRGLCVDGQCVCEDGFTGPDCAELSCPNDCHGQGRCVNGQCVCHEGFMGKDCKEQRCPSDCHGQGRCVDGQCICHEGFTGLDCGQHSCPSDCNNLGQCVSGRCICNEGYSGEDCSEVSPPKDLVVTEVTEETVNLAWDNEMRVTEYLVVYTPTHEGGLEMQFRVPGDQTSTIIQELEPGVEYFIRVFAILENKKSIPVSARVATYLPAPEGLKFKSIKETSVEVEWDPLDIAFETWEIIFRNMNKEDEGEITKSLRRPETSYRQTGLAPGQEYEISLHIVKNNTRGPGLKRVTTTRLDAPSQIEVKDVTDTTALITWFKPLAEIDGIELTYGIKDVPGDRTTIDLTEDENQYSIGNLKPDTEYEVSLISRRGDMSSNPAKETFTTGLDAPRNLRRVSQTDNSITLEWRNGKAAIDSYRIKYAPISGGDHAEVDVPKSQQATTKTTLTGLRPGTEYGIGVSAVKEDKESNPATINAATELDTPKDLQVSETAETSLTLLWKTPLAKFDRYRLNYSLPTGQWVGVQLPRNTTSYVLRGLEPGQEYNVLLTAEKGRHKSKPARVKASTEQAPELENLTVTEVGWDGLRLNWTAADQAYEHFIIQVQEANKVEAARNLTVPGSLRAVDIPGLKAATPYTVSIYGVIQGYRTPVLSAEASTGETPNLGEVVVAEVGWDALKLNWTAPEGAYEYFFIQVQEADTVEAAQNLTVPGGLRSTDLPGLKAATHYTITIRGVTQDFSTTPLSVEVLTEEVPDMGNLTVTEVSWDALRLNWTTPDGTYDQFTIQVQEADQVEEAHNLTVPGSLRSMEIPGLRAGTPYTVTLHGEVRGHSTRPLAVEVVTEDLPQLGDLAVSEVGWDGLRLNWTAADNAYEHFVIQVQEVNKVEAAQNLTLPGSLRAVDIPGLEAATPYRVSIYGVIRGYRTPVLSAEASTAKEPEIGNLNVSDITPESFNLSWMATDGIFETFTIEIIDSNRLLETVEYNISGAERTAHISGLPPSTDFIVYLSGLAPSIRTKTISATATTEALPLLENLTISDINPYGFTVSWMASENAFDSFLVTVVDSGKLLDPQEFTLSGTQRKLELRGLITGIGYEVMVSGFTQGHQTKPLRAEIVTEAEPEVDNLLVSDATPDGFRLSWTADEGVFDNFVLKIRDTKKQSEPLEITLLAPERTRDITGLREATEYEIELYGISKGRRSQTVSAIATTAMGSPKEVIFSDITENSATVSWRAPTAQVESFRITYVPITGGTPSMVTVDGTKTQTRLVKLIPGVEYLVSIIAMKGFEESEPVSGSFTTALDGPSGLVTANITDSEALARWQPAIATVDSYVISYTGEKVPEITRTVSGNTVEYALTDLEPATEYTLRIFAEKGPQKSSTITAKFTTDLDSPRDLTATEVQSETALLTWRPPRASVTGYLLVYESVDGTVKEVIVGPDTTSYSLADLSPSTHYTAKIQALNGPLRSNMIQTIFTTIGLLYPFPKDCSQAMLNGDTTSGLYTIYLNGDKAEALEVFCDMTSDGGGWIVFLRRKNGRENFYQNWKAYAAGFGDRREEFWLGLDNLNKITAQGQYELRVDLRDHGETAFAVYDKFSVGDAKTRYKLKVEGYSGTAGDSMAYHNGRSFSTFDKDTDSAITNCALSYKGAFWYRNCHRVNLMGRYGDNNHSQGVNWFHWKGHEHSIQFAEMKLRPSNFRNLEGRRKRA

| Kd [1] [nM] | Kd [2] [nM] | Kd [3] [nM] | Kd [4] [nM] | Kd [5] [nM] | Binder |
| --- | --- | --- | --- | --- | --- |
| 2.4 | 2 | 6.9 | 5.2 | 11.2 | human BMP-2-PlGF2123-144* (ligand) QAKHKQRKRLKSSCKRHPLYVDFSDVGWNDWIVAPPGYHAFYCHGECPFPLADHLNSTNHAIVQTLVNSVNSKIPKACCVPTELSAISMLYLDENEKVVLKNYQDMVVEGCGCRRRPKGRGKRRREKQRPTDSHL |
| 94.7 | 47.1 | 25.5 | 19.2 | – | human BMP-2 (ligand) QAKHKQRKRLKSSCKRHPLYVDFSDVGWNDWIVAPPGYHAFYCHGECPFPLADHLNSTNHAIVQTLVNSVNSKIPKACCVPTELSAISMLYLDENEKVVLKNYQDMVVEGCGCR |
| 1.2 | 3.2 | 6.3 | 4.5 | 3.3 | human PDGF-BB-PlGF2123-144 (ligand) SLGSLTIAEPAMIAECKTRTEVFEISRRLIDRTNANFLVWPPCVEVQRCSGCCNNRNVQCRPTQVQLRPVQVRKIEIVRKKPIFKKATVTLEDHLACKCETVAAARPVTRRRPKGRGKRRREKQRPTDCHL |
